Data taken from article PMC12262686 (bioRxiv, 2025).
Residue numbers refer to the chain shown, from its start. Numbers in names are those of the source. Where “and” joins values, the source holds several entries; their conditions need not be identical. Identical values can stand only once.

B1: Speckle-type POZ protein (SPOP), full-length, wild type, O43791 1-374 (natural protein)
chain: MSRVPSPPPPAEMSSGPVAESWCYTQIKVVKFSYMWTINNFSFCREEMGEVIKSSTFSSGANDKLKWCLRVNPKGLDEESKDYLSLYLLLVSCPKSEVRAKFKFSILNAKGEETKAMESQRAYRFVQGKDWGFKKFIRRDFLLDEANGLLPDDKLTLFCEVSVVQDSVNISGQNTMNMVKVPECRLADELGGLWENSRFTDCCLCVAGQEFQAHKAILAARSPVFSAMFEHEMEESKKNRVEINDVEPEVFKEMMCFIYTGKAPNLDKMADDLLAAADKYALERLKVMCEDALCSNLSVENAAEILILADLHSADQLKTQAVDFINYHASDVLETSGWKSMVVSHPHLVAEAYRSLASAQCPFLGPPRKRLKQS
B2: SPOP D77E, full-length (natural protein)
chain: B1 chain with D77E
B3: SPOP D130E (natural protein)
chain: B1 chain with D130E
B4: SPOP E47K, full-length (natural protein)
chain: B1 chain with E47K
B5: SPOP E78K, full-length (natural protein)
chain: B1 chain with E78K
B6: SPOP V51E, full-length (natural protein)
chain: B1 chain with V51E
B7: SPOP W131G (natural protein)
chain: B1 chain with W131G
B8: SPOP R45W (natural protein)
chain: B1 chain with R45W
B9: SPOP E47A (natural protein)
chain: B1 chain with E47A
B10: SPOP E50K (natural protein)
chain: B1 chain with E50K
B11: SPOP R99W (natural protein)
chain: B1 chain with R99W
B12: SPOP R121Q (natural protein)
chain: B1 chain with R121Q
B13: SPOP D140N (natural protein)
chain: B1 chain with D140N
B14: SPOP Y87F (natural protein)
chain: B1 chain with Y87F
B15: SPOP W131L (natural protein)
chain: B1 chain with W131L
B16: SPOP M117V (natural protein)
chain: B1 chain with M117V
B17: SPOP K129E (natural protein)
chain: B1 chain with K129E
B18: SPOP E47Q (natural protein)
chain: B1 chain with E47Q
B19: SPOP R221C (natural protein)
chain: B1 chain with R221C
B20: SPOP S96R, full-length (natural protein)
chain: B1 chain with S96R
B21: SPOP G128D, full-length (natural protein)
chain: B1 chain with G128D
B22: SPOP M48I (natural protein)
chain: B1 chain with M48I
B23: SPOP G128S (natural protein)
chain: B1 chain with G128S
B24: SPOP R70L (natural protein)
chain: B1 chain with R70L
B25: SPOP K134N, full-length (natural protein)
chain: B1 chain with K134N

Experiments:
[1] = target: BRD3 peptide containing the main SPOP-binding motif of BRD3; assay: fluorescence polarisation
[2] = target: T1, Speckle-type POZ protein (SPOP), full-length, wild type (human), O43791; assay: cryo-EM structure; settings: remark: other sources report otherwise
T1 chain: B1 chain

[3] = target: the molecule itself; assay: negative-stain TEM

Molecule | binding result [3] | other results
SPOP MATH domain K134N (from UniProt O43791 31-161) (domain or fragment) |  | fold weaker binding than the WT MATH domain [1]: 4 fold
SPOP K134N, full-length (from UniProt O43791 1-374) (natural protein) |  | fold weaker binding than full-length WT [1]: 11 fold
B1 |  | stoichiometry N [2]: 48 monomers and 56 monomers
B2 | binds | 
B3 | binds | 
B4 | binds | 
B5 | binds | 
B6 | binds | 
B7 | binds | 
B8 | binds | 
B9 | binds | 
B10 | binds | 
B11 | binds | 
B12 | binds | 
B13 | binds | 
B14 | binds | 
B15 | binds | 
B16 | binds | 
B17 | binds | 
B18 | binds | 
B19 | binds | 
B20 | binds | 
B21 | binds | 
B22 | binds | 
B23 | binds | 
B24 | binds | 
B25 | binds | 
